Reference: article doi:10.1101/2020.10.13.337493 (bioRxiv, 2020)
Values belong to the molecule of their own block, whether it stands above or below them.

B1: N-PH-FFAT construct of OSBP (domain or fragment, human, UniProt P22059 1-408, looked up)
chain: MAATELRGVVGPGPAAIAALGGGGAGPPVVGGGGGRGDAGPGSGAASGTVVAAAAGGPGPGAGGVAAAGPAPAPPTGGSGGSGAGGSGSAREGWLFKWTNYIKGYQRRWFVLSNGLLSYYRSKAEMRHTCRGTINLATANITVEDSCNFIISNGGAQTYHLKASSEVERQRWVTALELAKAKAVKMLAESDESGDEESVSQTDKTELQNTLRTLSSKVEDLSTCNDLIAKHGTALQRSLSELESLKLPAESNEKIKQVNERATLFRITSNAMINACRDFLMLAQTHSKKWQKSLQYERDQRIRLEETLEQLAKQHNHLERAFRGATVLPANTPGNVGSGKDQCCSGKGDMSDEDDENEFFDAPEIITMPENLGHKRTGSNISGASSDISLDEQYKHQLEETKKEKRTR
B2: VAP-A (natural protein, human, UniProt Q9P0L0 8-249, looked up)
chain: MAKHEQILVLDPPTDLKFKGPFTDVVTTNLKLRNPSDRKVCFKVKTTAPRRYCVRPNSGIIDPGSTVTVSVMLQPFDYDPNEKSKHKFMVQTIFAPPNTSDMEAVWKEAKPDELMDSKLRCVFEMPNENDKLNDMEPSKAVPLNASKQDGPMPKPHSVSLNDTETRKLMEECKRLQGEMMKLSEENRHLRDEGLRLRKVAHSDKPGSTSTASFRDNVTSPLPSLLVVIAAIFIGFFLGKFIL

Assays:
[1] = target: OSBP Central Core (CC), wild type (human) (UniProt P22059); test: SEC
[2] = target: OSBP CC[V199C] construct (V199C/C224A/C276A), labelled with AF-488 or AF-568 (human) (UniProt P22059); test: FRET or BRET
cryo-EM structure = target: the molecule itself; test: cryo-EM structure
[3] = target: B1; test: membrane tethering in reconstituted contact sites, seen by cryo-EM and cryo-ET

stoichiometry N [1]: 2
Molecule: OSBP Central Core (CC), wild type (from UniProt P22059 199-324) (domain or fragment)

half-time of monomer exchange [2]: 100 min
Molecule: OSBP CC[V199C] construct (V199C/C224A/C276A), labelled with AF-488 or AF-568 (from UniProt P22059 199-324) (domain or fragment)

Molecule: B1
stoichiometry N (cryo-EM structure): 2

Molecule: B2
stoichiometry N (cryo-EM structure): 2
binding result [3]: binds
